Data from patent US20170157149A1 (REGENTS OF THE UNIVERSITY OF MICHIGAN, published 2017).
No end group written: not given here.

Target: T1, scavenger receptor class BI (SR-BI) (UniProt Q8WTV0 1-552, limits assumed)
T1 sequence (looked up): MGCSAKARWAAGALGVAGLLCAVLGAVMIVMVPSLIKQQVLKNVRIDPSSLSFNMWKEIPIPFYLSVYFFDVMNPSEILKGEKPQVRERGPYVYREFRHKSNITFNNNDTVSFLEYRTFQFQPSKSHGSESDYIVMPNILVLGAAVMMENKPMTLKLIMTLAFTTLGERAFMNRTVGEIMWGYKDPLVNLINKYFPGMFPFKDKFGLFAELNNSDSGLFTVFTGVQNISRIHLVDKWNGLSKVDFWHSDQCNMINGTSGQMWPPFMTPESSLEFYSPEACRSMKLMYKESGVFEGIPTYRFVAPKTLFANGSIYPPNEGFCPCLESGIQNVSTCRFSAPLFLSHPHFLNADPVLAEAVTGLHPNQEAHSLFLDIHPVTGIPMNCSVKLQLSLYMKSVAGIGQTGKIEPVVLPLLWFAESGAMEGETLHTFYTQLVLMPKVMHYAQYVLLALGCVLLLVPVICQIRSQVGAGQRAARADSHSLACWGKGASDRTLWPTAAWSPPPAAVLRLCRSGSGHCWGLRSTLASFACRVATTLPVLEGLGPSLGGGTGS
Test: cell-based or functional assay

blocking of uptake of DIO labeled HDL nanoparticles by 10 fold excess of HDL (fluorescence microscopy): > 90%
B1: DIO labeled HDL nanoparticles (synthetic HDL of 22 A peptide and lipids) (other)
peptide: PVLDLFRELLNELLEALKQKLK
modifications: also: sHDL lipid nanoparticle with lipids, DIO tracer label in particle, acetate salt
